Consider 103 substances from the supplement of paper PMC12042874.

± gives the uncertainty stated by the source.

Data set [1] is described as follows: amyloid nucleation score (Sup35N fusion, yeast selection) (log enrichment); library NNK1; higher = more nucleation; inactive = no reads after selection. The method, boiled down:
(§1)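 Peptides of 20 random codons, each fused to Sup35N, were expressed in psi-negative yeast. Cells were induced with 100 μM copper sulfate for 24 hours and grown 7 days at 30°C on medium lacking adenine and uracil, and plasmid inserts before and after selection were Illumina-sequenced. Nucleation scores are DiMSum log enrichments of output over input reads, centred on the mode score of non-aggregating sequences, and sequences under 100 input reads were excluded.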

Data set [2] can be described thus: amyloid nucleation score (Sup35N fusion, yeast selection) (log enrichment); library NNK2; higher = more nucleation; inactive = no reads after selection. Summed up:
as §1

For GVFEPCRVRSFMHIVSIADR, the amyloid nucleation score in data set [1] was -0.306 ± 1.7.
GWMYVSMLFGVG showed an amyloid nucleation score in data set [1] of -0.455 ± 1.7.
Take VRGSVRCNVDYLICVYVHR: in data set [1], the amyloid nucleation score came to 1.46 ± 0.51.
The same measure, in the same setting: then QGIYTD, with -0.921 ± 0.78.
With AVLYLSQFGLNRKRGYTA, the amyloid nucleation score in data set [1] worked out at 0.582 ± 0.56.
On the same count and under the same terms, then LYLSWSFSALSV, with -0.593 ± 1.2.
Consider RCLEGLSIMLNDFLPPCGP, for which the amyloid nucleation score in data set [1] was -0.224 ± 0.71.
Regarding AEHNYVRRELAGEPNLV, the amyloid nucleation score in data set [1] turned out to be 3.11 ± 0.095.
Still for that read-out and setting: then PPTGTLSRHVRSSVQGMGVA, with “inactive”.
Same read-out and setting: under TCTFPKVIQSYAGRLAMPGY stands -0.135 ± 0.58; under KSTPEYRSKDSMCELHKDMC, “inactive”.
Still for that read-out and setting: under ITPTYGT stands -0.023 ± 0.39; under TTHLSHIYLLDASYNYKDSR, 0.27 ± 0.36; under HSTCLPNTIQTLRRRALSCR, -1.22 ± 1.9.
Take NWLFRQCGSQMMVYVFEFFY: the amyloid nucleation score in data set [1] is -0.776 ± 0.59.
On to FSNARWASRSLKSARMACVA, for which the amyloid nucleation score in data set [1] was found to be 0.554 ± 0.81.
YWLSTTIRYVCEVQATPCWI: the amyloid nucleation score in data set [1] is -1.31 ± 2.7.
In turn, SLGVDYDTGSVVYVAGCNCR came in with an amyloid nucleation score in data set [1] of 0.009 ± 0.46.
MHHCSFSSLDFTVHK returned an amyloid nucleation score in data set [1] of -1.02 ± 2.4.
Same read-out and setting: then RVIPAAVISHYVK, with -0.143 ± 1.7; and ETEGSELFNFWAGVNWRRIQ, with -0.425 ± 1.3; and SGFSGVRNHPRETQLCHGSA, with -0.094 ± 0.33.
On to FSNIWMSTMVPSRVRKARCV, for which, in data set [1], the amyloid nucleation score is 0.05 ± 0.75.
Still for that read-out and setting: then RYWCCSPVRSLVHGRHCEV, with 1.52 ± 0.24; and WPWNEPY, with -0.251 ± 0.48; and RVQFRKSTVSISYQNGFCTQ, with 2.73 ± 0.086.
Same read-out and setting: then AFRRCTKSFIL, with -0.427 ± 1.9; and AASVSCNLQQKAKRVAFFLM, with 0.726 ± 1.1.
Same read-out and setting: under VGISMHFRSRENFQSN stands “inactive”; under STNWFNYSNGNTVWDIGDYL, 0.4 ± 0.32; under LNMLMMVGVWGYFVITIHTI, 0.68 ± 0.71.
In turn, ITSNHSVWGIMLLKLVTGSI registered an amyloid nucleation score in data set [1] of 0.496 ± 0.48.
On the same count and under the same terms, under DWFAECVFLRRTLESY stands -0.601 ± 0.4; under TIMVVWCSGKDGSQVTWMQF, 0.324 ± 0.34; under VVVFSTF, -0.376 ± 1.4.
On the same count and under the same terms, then VRKYRRWSRMIWGCYNNFVF, with -1.44 ± 0.53.
Same read-out and setting: under YGEPYV stands 0.829 ± 0.66; under FWTRCVFLLRGNSMWESCRG, -0.385 ± 0.9.
Turning to STALLS, the amyloid nucleation score in data set [1] came out at 0.21 ± 0.74.
Turning to GEIEHHLRYVQCYFRRAVRL, the amyloid nucleation score in data set [1] is 0.319 ± 0.33.
On the same count and under the same terms, under WVILMMLCILRGRELSVAYW stands -0.446 ± 0.99; under PVTSTIHRHPFFHVTTGDRM, -1.32 ± 0.94.
Same read-out and setting: then TRLVVLRSW, with 1.14 ± 0.98.
On the same count and under the same terms, then TLAGRCINDCILEGDMSRCF, with 2.18 ± 0.57; and NLLGYVNVQVGAVYTGNNRL, with 7.602 ± 0.066.
SSNWLRY had an amyloid nucleation score in data set [1] of 0.692 ± 0.66.
Regarding VVASSCSFNRRLESSAGYL, the amyloid nucleation score in data set [1] is 0.744 ± 0.37.
On the same count and under the same terms, then ECYLV, with -0.663 ± 0.8; and DSLWLRYVFMRTVLLMVHVR, with “inactive”; and VLDMKFKYNVPSLK, with 5.41 ± 0.06.
Same read-out and setting: under LGGFYTRRCVCSLGTRQERE stands -0.072 ± 0.49; under RGLLYS, 0.768 ± 0.75.
In data set [1], LCLLIDNTYIVDVFFYVLSQ yielded an amyloid nucleation score of 1.49 ± 0.32.
Take QGSVSRCISEALTVRCYRTG: the amyloid nucleation score entry in data set [1] is “inactive”.
For the substance CRSSVLRSVCINNLSKCSLV, the amyloid nucleation score result in data set [1] is “inactive”.
On the same count and under the same terms, under MQSMQL stands “inactive”.
The substance NVIGISATNASLSLVLISVI had an amyloid nucleation score in data set [1] of -0.509 ± 0.32.
Same read-out and setting: under YATGDCDVLMYRLGMNKKSS stands 0.488 ± 0.45; under VVLQVMFARAWWFF, 0.185 ± 0.33; under HLWHSGPFVRMCCATFIFLA, 0.49 ± 0.75.
The same measure, in the same setting: under LYPMGYVRRCI stands -0.29 ± 0.54; under DFSCGRMGFALERSLAMYRA, 0.041 ± 0.53; under FHEDKIS, 1.34 ± 0.36.
On the same count and under the same terms, under LQDFGKHPTLRCTVYRLHRP stands -1.02 ± 0.83.
YDFLPRVNNPLSRNLRHRAL showed an amyloid nucleation score in data set [1] of -0.071 ± 0.56.
The same measure, in the same setting: then CPRYLATNIFHAGECVNHSR, with -1.08 ± 2.7; and KLDMGVLPFANWSVDT, with -0.032 ± 0.28; and LRARVGGVEFVYSVQRRLKP, with -0.167 ± 0.62.
As for MISLHVL, the amyloid nucleation score in data set [1] was -0.109 ± 1.3.
Still for that read-out and setting: then ESTLNRVRVTALETVQQCLS, with 0.275 ± 1.2; and MQWSYV, with 0.32 ± 0.37.
As for SFSHVYFYGVPYGQVPYRSV, the amyloid nucleation score in data set [1] was determined as 1.5 ± 0.28.
In data set [1], RLSRKISSWLTRYIIAWSWS registered an amyloid nucleation score of -0.713 ± 0.61.
Still for that read-out and setting: under KPGTNSYGCVYNHGFMGCTK stands -0.245 ± 0.45.
The same measure, in the same setting: then TRNVMFINVALHFSNLVGWC, with 4.21 ± 0.12; and TDNTVVVMHWFHTFSPGARK, with 2.08 ± 0.28; and AYINSSDSRSDMSRNWY, with 0.47 ± 1.1.
In data set [1], VQAKYNSSLGESNRDSDCAS had an amyloid nucleation score of 0.187 ± 0.34.
Still for that read-out and setting: then GMSALYSGDVL, with -0.118 ± 0.57; and SGQMSLWSYL, with 0.781 ± 0.59; and GSSLTPCFEWMIIRCVEEDG, with 1.05 ± 0.79.
Same read-out and setting: under IILRFVCDI stands “inactive”.
The same measure, in the same setting: then PFQYADGTFF, with 4 ± 0.15; and TQKHCY, with 0.326 ± 0.33; and SLVAGVVFVFMYRVPKIGLV, with -0.807 ± 1.2.
Consider EYMFGYVSLSVDGSTLEFHD, for which the amyloid nucleation score in data set [1] worked out at 0.107 ± 0.24.
Same read-out and setting: under RVLSVIVNILIARFT stands -0.028 ± 0.25; under LSRTKGYC, 0.558 ± 0.33.
Still for that read-out and setting: under VEIPHKKWNYVSHLLLSIHG stands 0.307 ± 0.3.
On the same count and under the same terms, under DLRSSGFDTELILQVSVQLL stands -0.264 ± 0.59; under NNPEINFYKVWAIKSYF, 2.83 ± 0.13.
In data set [1], IYRGSNRLRRIGWEFNVALD came in with an amyloid nucleation score of -0.819 ± 0.33.
ISPIVEIGRASTVTLSDISV had an amyloid nucleation score in data set [2] of 4.71 ± 0.054.
In the case of CTAYYCDVSLNYVVRYNFPL, the amyloid nucleation score result in data set [2] is “inactive”.
Regarding VKFWYWAVDLDSCVRCGDGA, the amyloid nucleation score in data set [2] was determined as 6.586 ± 0.049.
In data set [2], WQIGPCYNVLRFLKWFWSLR returned an amyloid nucleation score of -0.637 ± 1.1.
Same read-out and setting: then KFNPRPCSFKYLRV, with “inactive”.
Same read-out and setting: then VHCREWEIIRMINLSRKQRV, with -0.419 ± 0.46.
For GWCSYTP, the amyloid nucleation score in data set [2] is 0.832 ± 0.67.
On the same count and under the same terms, then ATSMVSSTRVHVHFDHVRVE, with 6.54 ± 0.066; and HVVGVNLYRTLGRVFHLWDS, with -0.084 ± 0.76; and GIHRSMTFLTNQNRLIWSHG, with 1.17 ± 0.4.
On the same count and under the same terms, under LNVDP stands “inactive”.
